From article PMC6358511

Molecular target: EGFRvIII, biotinylated (human, UniProt P00533 25-30+298-645, V30G;internal_change)
Test: BLI

B1: ME07 (alkyne-modified MinE07) (XNA)
RNA: GGACGGAUUUAAUCGCCGUAGAAAAGCAUGUCAAAGCCGGAACCGUCC
modifications: 2'-fluoro at all C and U; 2'-OH purines; 5' alkyne
Kd: 271 nM
